Laboratory results reported in patent US20240141062A1 (published 2024).

How the values were obtained:
[1] = target: T1, human CD38 on tumor cells (human, UniProt P28907 1-300); assay: flow cytometry on Raji-CD47KO cells
T1 construct: whole, on cells; Endogenous CD38 of the cell lines; also called CD38 on Raji-CD47KO cells

human CD47 on cells = target: T2, human CD47 on cells (human, UniProt Q08722 19-323); assay: flow cytometry on human red blood cells
T2 construct: whole, on cells; Endogenous CD47 of the cells; also called CD47 on Daudi cells; CD47 on RBCs

B1: BEAT CD38/CD47-60 (bispecific antibody, human IgG1, kappa)
heavy 1: EVQLVESGGGLIQPGGSLRLSCAASGFTLSRNTMHWVRQAPGKGLEWVSVIYQSGVTRYADSVKSRFTISRDNSKNTLYLQMNSLRAEDTAVYYCARGRYGVAGGPGYAFDVWGQGTLVTVSSASTKGPSVFPLAPSSKSTSGGTAALGCLVKDYFPEPVTVSWNSGALTSGVHTFPAVLQSSGLYSLSSVVTVPSSSLGTQTYICNVNHKPSNTKVDKKVEPKSCDKTHTCPPCPAPELLGGPDVFLFPPKPKDTLMISRTPEVTCVVVDVSHEDPEVKFNWYVDGVEVHNAKTKPREEQYNSTYRVVSVLTVLHQDWLNGKEYKCKVNNKALPAPEEKTISKAKGQPREPAVYTLPPSREEMTKNQVKLVCLVTGFYPSDIAVEWESSGQPENNYYTTPPMLDSDGSFSLVSWLNVDKSRWQQGNIFSCSVMHEALHNRFTQKSLSLSPG
heavy 2: not shown
light: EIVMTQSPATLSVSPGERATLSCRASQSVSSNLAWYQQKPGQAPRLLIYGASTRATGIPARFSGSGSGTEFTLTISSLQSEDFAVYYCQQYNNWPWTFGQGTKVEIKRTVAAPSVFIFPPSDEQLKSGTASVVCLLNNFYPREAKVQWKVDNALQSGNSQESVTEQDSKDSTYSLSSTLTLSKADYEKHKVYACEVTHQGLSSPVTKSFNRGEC
notes: 2+1 biparatopic BEAT: anti-CD47-H2 arm on BEAT (A); BEAT (B) carries Fc distal anti-CD38-B6-D9 and Fc proximal anti-CD38-E2-RecA Fabs; BEAT (A): S239D + I332E + S324N, BEAT (B): S324N; also called BEAT CD38/47-60; BEAT 38/47-60
Does B1 bind [1]?
Result: binds

Does B1 bind (human CD47 on cells)?
Result: binds
